Values quoted from earlier work, collected in patent US20110118324A1, “METHOD AND COMPOSITION FOR TREATING MULTIPLE SCLEROSIS (VARIANTS)” (priority 2009, published 2011).

System: multiple sclerosis patients

B1: Betaferon: a recombinant human Beta-1b interferon (protein, UniProt P01574 22-187, looked up, variant C17S)
Interferon beta: MSYNLLGFLQRSSNFQSQKLLWQLNGRLEYCLKDRMNFDIPEEIKQLQQFQKEDAALTIYEMLQNIFAIFRQDSSSTGWNETIVENLLANVYHQINHLKTVLEEKLEKEDFTRGKLMSSLHLKRYYGRILHYLKAKEYSHCAWTIVRVEILRNFYFINRLTGYLRN
modifications: lacks N-terminal Met, non-glycosylated
notes: a recombinant human Beta-1b interferon
reduction of the frequency of acute conditions occurring in the disease: 30%
reduction of the severity of acute conditions: 30%
side effects: intensified depressive symptomatology
